Measurements as given in the DeepSol protein solubility set.

Assay: soluble on expression in E. coli; label from the status in PepcDB or PDB records

| Sequence | soluble on expression in E. coli |
| --- | --- |
| MGSDKIHHHHHHMFQRAFLLYNGKAGNGKTDKYLKDVVPRALQSIGELTIIPSKEKGDIESICREREVDLIIVMGGDGTVHECINGLAVSPSPPPLVVLPTGTCNDFARSLRIPLSFVEAGNLLESGTWKRVPLIQANHRCYTNFLGMGIITTASEGTNPELKETFGRFSYFLSALQSLREPSPFSYTITSTKGSMSGQAILLLVMHGQFLGTLPVQLDENAIEQPFVTIYIVKEGGLPFIKDLVKGLVSPAMVNESDHIDRMTCDQCQIETEPVLSIDMDGEIYMKTPVNITTVGKVITVRVPDVNVTSDADHTIGGAQDTP | not soluble |
| MGYIVDISKWNGNINWDVAAPQLDFVIARVQDGSNYIDPLYKSYVQAMKTRNIPFGNYAFCRFISIADAKKEAQDFWNRGDKSATVWVADVEVKTMDDMIAGTQAFIDELRRLGAKKVGLYVGHHMYGPFGMANVKSDFVWIPRYGGNKPAYPCDIWQYTETGNVPGIGKCDLNQLIGNKPLSWFTESVPKQENIQAQVSKQNIIQSGAFSPYETPDVMGALTSLKMTATFILQSDGLTYFVTEPTSDTQLNALKSWLDRKGWWYEVK | not soluble |
| MNNSIPERFIFQCALFKNLEREVFMTHGYVDSHIIDQALRLRLKDETSVILSDLYLQILQYIEMHKTTLTDIIINDRESVLSAAALEHHHHHH | not soluble |
| MKSEIIAVGTEILTGQIVNTNSQFLSEKFAELGIDVYFQTAVGDNEERLLSVLKIAKERSDLIVLCGGLGPTEDDLTKQTLAKFLKRELVFDKTAQERLDEFFASRPTSMRTPNNECQAQIIAGSQPLSNKTGLAVGGLLEADGVTYVVLPGPPSELKPMVNKELLPYLSKTSEKLYSRVLRFFGIGESHLVTLLHDLIAEQTDPTIAPYAKTGEVTIRLSTKAHRQKEADSKLDKLEKKIITIDNLADYFYGYGEENSLPQVVFDLLKEKGKTITAAESLTAGLFQARLADFAGASDIFKGGFITYSIEEKARMLGIPFEDLQLHGVVSAFTAEKMAERSRQLTQADLAISLTGVAGPDSLEGQPAGTVFIGLSSSKRTMAIKVLIGGRSRSDVRYIAVLHAFNLVRQTLLSHKNLV | soluble |
| MGSDKIHHHHHHMAYSDTPEQSAVINWKGRHLVVNAFAGTGKTTTLVRYAQANPDRRMLYLAYNRAVRDDAERKFPFNVECKTSHQLAWMKFGKHLKPRLTPNLRITDVARKLNTRHWPLVRMALAALNHFLCSASPALSYEHLPDENNREGLDAGNILGAAQFLWNEMSRIDSTFPVTHDTYLKLFQLSVPDLSKRWDTILFDEAQDANPVISSLVLTQNCNVVLVGDRHQQIYRFRGADNALNAPVLEGADRLWLTQSFRFGSAVAEMANVLLARQEETHPVIGNGGDDDVIDRLPADVSRYTILSRTVAGVIGAALYESMKEKIVYWVGGIEGYKTEELEDLYWFSVDMPERMRTPRLSREYRDFEEYKSMTKATGDVEMNQAIGLLDKYFPLPQKLQVLRSQATTNEKDADVVVSTAHRSKGLEWDTVMLNDDFSDITDPLLSEAARTDETNLLYVATTRARKLLVRNELLKLLCEQEESDDIAEDQFTDSNLI | not soluble |
| MSLRKFKSILLIDDDETSNFISEVIIKKLGITETISTVKNGVEALNFVSNNCTINCAPTCPQIIFLDLHMPVMDGFDFLKELKKQMPLYTQKFKIFVLSSSNNPADITKTKDFDVEGYIVKPLSQEKISMLLEDVAEGHHHHHH | not soluble |
| MSLDETPTIHILWINAGLSCDGDSVALTAAMQPSIEEIVLGVLPGLPKIAVHWPLIDFECGPVGGSDTFIEWFFKGERGEIDPFVLVVEGSIPNESIKPEGYWCGFGDNPETGQPITTSEWIDRLAPKALAVVAIGTCATYGGIHAMAGNPTGAMGVPDYLGWDWKSQAGIPIVCVPGCPIQPDNFSETLTYLLYQAAGAAPMIPLDDKLRPTWLFGATEGHHHHHH | soluble |
| MGSDKIHHHHHHMKYTYREAGVDVERGESFAKTIKSAVKLPEWVMKEPTGYASILTITTPPVVVTADGIGTKLILHRKHGTWRYAAEDLVGMNYNDLVCVGARPVAFLDYLGVERISEEHESFIKELVNVLDSVDVKLVGGETAEMPDVYRGDWDAVGFAVGVLEKRIPVDKIKEGDVIVGIPSSGFHSNGWSLIRRIIKEESIKIEELPFELLKGTRIYREVIELFDLVKGIAHVTGGGVVRALKRVLGKLGAHVSLPKRDFVDWILKYVDFNEAVNTFNMGVGMFLIVEKQKVDEVLARVDGTVVGKVSSDWRIEYGGEGG | not soluble |
| MSLSPPGVRLFYDPRGHHAGAINELCWGLEEQGVPCQTITYDGGGDAAALGALAARSSPLRVGIGLSASGEIALTHAQLPADAPLATGHVTDSDDQLRTLGANAGQLVKVLPLSERN | soluble |
| MGSDKIHHHHHHMKALIEVHNLWKEYNGKEKVTALKGINLRINTGEFVVILGPSGSGKTTLLNCLSGVDRPTRGTVIIHGTDLYTLSEEERTRFRAENMGFVFQFFNLVPVLTAIENVELPLLILGVNRKEARERAFEILRKVGLAHKCDRFPEELSGGEKQRVAIARAIVHNPKVIWADEPTGALDNETGRMIIDLLMEMKENSTLVVVTHDERIAEKADRVIRIRDGQIEQDICEKAL | not soluble |
| MSLDPRKVNELRAFVKMCKQDPSVLHTEEMRFLREWVESMGGKVPPATQKAKSEENTKEEKPDSKKVEEDLKADEPSSEESDLEIDKEGVIEPDTDAPQEMGDENAEITEEMMDQANDKKVAAIEALNDGELQKAIDLFTDAIKLNPRLAILYAKRASVFVKLQKPNAAIRDCDRAIEINPDSAQPYKWRGKAHRLLGHWEEAAHDLALACKLDYDEDASAMLKEVQPRAQKIAEHRRKYERKREEREIKERIERVKKAREEHERAQREEEARRQSGAQYGSFPGGFPGGMPGNFPGGMPGMGGGMPGMAGMPGLNEILSDPEVLAAMQDPEVMVAFQDVAQNPANMSKYQSNPKVMNLISKLSAKFGGQAEGHHHHHH | soluble |
| MNAIIFCLLFTTVTATYEVFGKGIEHRNEHLIINQLDIIPVESTPTPNRASRVQKRLCGRRLILFMLATCGECDTDSSEDLSHICCIKQCDVQDIIRVCCPNSFRK | not soluble |
| MTEHTSSYYAASANKYAPFDTLNESITCDVCVVGGGYTGLSSALHLAEAGFDVVVLEASRIGFGASGRNGGQLVNSYSRDIDVIEKSYGMDTARMLGSMMFEGGEIIRERIKRYQIDCDYRPGGLFVAMNDKQLATLEEQKENWVRYGNKQLELLDVNAIRREVASDRYTGALLDHSGGHIHPLNLAIGEADAIRLNGGRVYELSAVTQIQHTTPAVVRTANGQVTAKYVIVAGNAYLGDKVEPELAKRSMPCGTQVITTERLSEDLARSLIPKNYCVEDCNYLLDYYRLTADNRLLYGGGVVYGARNPDDVERLVVPKLLKTFPQLKGVKIDYRWTGNFLLTLSHMPQFGRLDTNIYYMQGYSGHGVTCTHLAGRLIAELLRGDAERFDAFANLPHYPFPGGRTLRVPFTAMGAAYYSLRDRLGV | not soluble |
| SAYIHIPFCEHICHYCDFNKYFIQSQPVDEYLNALEQEMINTIAKTGQPDLKTIFIGGGTPTSLSEEQLKKLMDMINRVLKPSSDLSEFAVDANPDDLSAEKLKILKEAGVNRLSFGVQTFEDDLLEKIGRVHKQKDVFTSFERAREIGFENISLDLMFGLPGQTLKHLEHSINTALSLDAEHYSVYSLIVEPKTVFYNLMQKGRLHLPPQEQEAEMYEIVMSKMEAHGIHQYEISNFAKAGMESKHNLTYWSNEQYFGFGAGAHGYIGGTRTVNVGPVKHYIDLIAEKGFPYRDTHEVTTEEQIEEEMFLGLRKTAGVSKKRFAEKYGRSLDGLFPSVLKDLAEKGLIHNSES | not soluble |
| SLEQENMEQRVKHESEELLQKFKSTSNLDELIESLGGLGEEAQREAGESLEALKRPVKEMMNDENNHLPQKLHQLKEVVSQLEPDHLKQGAVKKFVNKILGRSPMEQYAQRYKTVEAQVENIIEALLTGKDKLQEDTLMLTQLKGVARERISHLEEQIEMGKQLNAMLESEMTSEEWKNNPTALKKGQQKVISRIKNMSQAIMVLQQSLASVDLIVENNEKLEEAIFNAITMTKNIITVTASIQLALGNQKKVINAVQNVNEATENMLLSNAEMLKKNTEDTLKTLEEPAIAIESFRKAYQDVFAAIELTEQSNERIVSSGKKFIAELDTLNKEMKTKLIESKSTSSS | soluble |
| MAHHHHHHMYTWFHTSSHVFFVMEYCSNGDLFTYLNEHGPFAEKKVAEMLFEIIWAIRTCHDKRIAHLDLKPENVLVNHEEKCKLADFGLSAHIGSKHKKKGISHYRGTHDYWSPEQCARHQKKKQNFGEFDQKTDIWTLGILAFELKFGRPPFGSTNEERETVIMNRIQDYHWSQLFCEKMKQDLIDKLSPEFKDFLNLCLDKNPKKRPTAETLIQHPFIFLHNKSRPCIKSYATQPRGKQGPKLSHKGFNEQDGSFLTPIWFHNKG | not soluble |
| MKKGHHHHHHGSQYNPQVADLKAFSKHIYNAYLKNFNMTKKKARSILTGKASHTAPFVIHDIETLWQAEKGLVWKQLVNGLPPYKEISVHVFYRCQCTTVETVRELTEFAKSIPSFSSLFLNDQVTLLKYGVHEAIFAMLASIVNKDGLLVANGSGFVTREFLRSLRKPFSDIIEPKFEFAVKFNALELDDSDLALFIAAIILCGDRPGLMNVPRVEAIQDTILRALEFHLQANHPDAQYLFPKLLQKMADLRQLVTEHAQMMQRIKKTETETSLHPLLQEIYKDMY | soluble |
| MTRGRVIQVMGPVVDVKFENGHLPAIYNALKIQHKARNENEVDIDLTLEVALHLGDDTVRTIAMASTDGLIRGMEVIDTGAPISVPVGQVTLGRVFNVLGEPIDLEGDIPADARRDPIHRPAPKFEELATEVEILETGIKVVDLLAPYIKGGKIGLFGGAGVGKTVLIQELIHNIAQEHGGISVFAGVGERTREGNDLYHEMKDSGVISKTAMVFGQMNEPPGARMRVALTGLTMAEYFRDEQGQDGLLFIDNIFRFTQAGSEVSALLGRMPSAIGYQPTLATEMGQLQERITSTAKGSITSIQAIYVPADDYTDPAPATTFSHLDATTNLERKLAEMGIYPAVDPLVSTSRALAPEIVGEEHYQVARKVQQTLERYKELQDIIAILGMDELSDEDKLVVHRARRIQFFLSQNFHVAEQFTGQPGSYVPVKETVRGFKEILEGKYDHLPEDRFRLVGRIEEVVEKAKAMGVEV | soluble |
| MGSDKIHHHHHHMNTNKRVLILTANYGNGHVQVAKTLYEQCVRLGFQHVTVSNLYQESNPIVSEVTQYLYLKSFSIGKQFYRLFYYGVDKIYNKRKFNIYFKMGNKRLGELVDEHQPDIIINTFPMIVVPEYRRRTGRVIPTFNVMTDFCLHKIWVHENVDKYYVATDYVKEKLLEIGTHPSNVKITGIPIRPQFEESMPVGPIYKKYNLSPNKKVLLIMAGAHGVLKNVKELCENLVKDDQVQVVVVCGKNTALKESLSALEAENGDKLKVLGYVERIDELFRITDCMITKPGGITLTEATAIGVPVILYKPVPGQEKENANFFEDRGAAIVVNRHEEILESVTSLLADEDTLHRMKKNIKDLHLANSSEVILEDILKESEMMTAKQKAKVLS | not soluble |
| MGCRATQRESVGFADKIRYTERRFISVFGVPLLIQLICQAPQRAQELEQIAARWQLQASDDSPFALVLSEERLELRKLDEPKLGAIYVDWVEGAVAHRRKFGGGKGQSIAKAAGLNKGVTPVVLDATAGLGRDAFVLASLGCRVQMVERHPVVAALLEDGLQRAKQDDEIGAWVSERISLLHASSHDALQQLASDPNFTSPDVVYLDPMYPHPENKKKTALVKKEMRVFQSLVGADNDADALLEPALQLAQKRVVVKRPDYAPWLGNRKPSMAMETKKNRFDVYVIAAMSGE | soluble |
